We go through three molecules from patent publication US20250332297A1, “DLL3-SPECIFIC BINDING CONSTRUCTS AND THEIR USE IN RADIOTHERAPY” (MOLECULAR PARTNERS AG, priority 2024, published 2025).

For one data set, the system named is NCI-H82 tumors. Description: Efficacy (tumor growth) in NCI-H82 tumor model. The class given is in vivo, mouse. The note with it: for Mean Diff.: Dunnett's multiple comparisons test, tumor volume in mm^3, NCI-H82, R2G2 mice. As for the experimental part:
To determine the efficacy of radio-labelled (Pb-212) DARPin (MAM279) conjugate in inhibiting the growth of tumors that express DLL3, different dose regimens (single or repeated dose) of the conjugate were tested in a relevant mouse tumor model (NCI-H82).
Animals were under observation daily and 3× per week tumors were measured by caliper. Animals were sacrificed when tumors reached 1500 to 2000 mm^3 or if termination criteria were met. The data were expressed as average+/−SEM of tumor volume in mm^3.
To determine the efficacy of more frequent repeat-dosing of radio-labelled (Pb-212) DARPin (MAM279) conjugate in inhibiting the growth of tumors that express DLL3, a weekly repeat-dosing regimen of the conjugate was tested in a relevant mouse tumor model (NCI-H82).
Corresponding injections of buffer only were done as control. The first weekly injection of radio-labeled molecules was done 14 days after xenografting the NCI-H82 cells. Animals were under observation daily and 3× per week tumors were measured by caliper. Animals were sacrificed when tumors reached 1500 to 2000 mm^3 or if termination criteria were met. The data were expressed as average+/−SEM of tumor volume in mm^3. Results are shown in FIGS. 20A to 20D and Table 23.

Data set [1] in a line: Dose response finding (tolerability) in WT CD1 mice.
Source text: Animals were under observation daily and 3× per week animals were weighed. […] The data were expressed as % of body weight (BW) change (relative to the initial BW −7 day before the treatment).
Animals were under observation daily and 3× per week animals were weighed. […] The data were expressed as % of body weight (BW) change (relative to the BW seven days before the treatment, i.e. the initial BW at day −7) (average+/−SEM).
Data set [2] concerns the target T1, human DLL3 and human serum albumin (Homo sapiens, UniProt P02768+Q9NYJ7).
T1 construct: Biotinylated recombinant human DLL3-ECD was immobilized
As to the kind of experiment: SPR simultaneous binding to DLL3 and serum albumin. The note with it: immobilized hDLL3-ECD, 150 nM conjugate then 1000 nM HSA. As for the experimental part:
Studies were performed to determine whether a two domain (2D) ankyrin repeat protein conjugate, as described herein, can bind simultaneously to DLL3 and serum albumin. The specific conjugate tested was MAM279 (SEQ ID NO: 11), with a Glycine-Serine (GS) at its N-terminal end and a tag (SEQ ID NO: 10) at its C-terminal end (resulting in GS-MAM279-tag (SEQ ID NO: 15)), conjugated to the chelator DOTAM as described in Example 3.
An SPR assay was used to assess the concurrent binding of DARPin (MAM279) conjugate to both human DLL3 and human serum albumin (HSA). […] A streptavidin SAHC200M (Xantec) sensor chip was conditioned according to the manufacturer's protocol. Biotinylated recombinant human DLL3-ECD was immobilized to a coating density of 1350-1470 RU. A single injection of 150 nM DARPin conjugate was performed, with an association time of 240 s using a constant flow of 100 μl/min. After a lag time of ˜300 seconds, HSA was injected at 1000 nM with an association time of 240 seconds and a dissociation time of 900 seconds using a constant flow of 100 μl/min. Control lanes were used where only one of the analytes or only PBST was injected. The signal was double referenced (interspot and buffer injection). The figure (FIG. 17) was prepared with GraphPad Prism 10.2.3.

Another data set addresses pig DLL3-ECD. Description: SPR, immobilized DARPin, binding of pig DLL3-ECD (Example 17). The note with it: immobilized biotinylated DARPin, DLL3-ECD as analyte, 1:1 Langmuir, Table 20. How it is done: Kinetic binding parameters and binding affinities of two domain (2D) ankyrin repeat protein MAM279 and single domain (1 D) ankyrin repeat protein MAM093 to DLL3 from different species were determined. The DLL3-specific ankyrin repeat domain of MAM093 is identical to the DLL3-specific ankyrin repeat domain comprised in MAM279.
SPR multi-trace analyses were performed similarly as described in Examples 1 and 11. Here, the binding kinetics of immobilized DARPin proteins to the extracellular domain of DLL3 (DLL3-ECD) from human, cynomolgus monkey, mouse and pig were determined. Various concentrations of recombinant DLL3-ECD starting from 500 nM were applied to immobilized biotinylated 2D DARPin (MAM279; SEQ ID NO: 11) or 1 D DARPin (MAM093; SEQ ID NO: 1) (both with a Glycine-Serine (GS) at the N-terminal end) for on-rate and off-rate measurements.
Streptavidin SAHC200M (Xantec) SPR chip was conditioned according to the manufacturer's protocol. Biotinylated DARPins were immobilized to a coating density of 27 resonance units (RU) for 1D DARPin and 25 RU for 2D DARPin. All analytes (3-fold dilution ranging from 500-6.17 nM) were injected in succession for 240 s and dissociation was recorded for 10800 s using a constant flow of 100 μl/min.
In general terms: SPR reads the build-up and loss of mass on a sensor chip optically.

B1: MAM279 conjugate: SEQ ID NO: 15 conjugated to DOTAM-maleimide, labelled with Pb-212 (natural lead in PK studies) (conjugate)
chain: GSDLGKKLLEAARAGQDDEVRELLKAGADVNAKDYFSHTPLHLAARNGHLKIVEVLLKAGADVNAKDFAGKTPLHLAADAGHLEIVEVLLKAGADVNAQDIFGKTPADIAADAGHEDIAEVLQKAAGSPTPTPTTPTPTPTTPTPTPTGSDLGKKLLAAAAQGQDDEVRELLKAGANVNAKDLFGYTPLHLAAWRGHLEIVEVLLKAGADVNAKDAAGETPLHLAAWFGHLEIVEVLLKAGADVNAQDLQGKTPADLAAKEGHEDIAEVLQKAAGSGSC
modifications: DOTAM-maleimide, Pb-212 label; Ankyrin repeat protein with tag (GS-MAM279-tag)
Regarding B1, the “Mean Diff.” value is given as 731.9 in the data set with NCI-H82 tumors (Buffer only vs. (4 × 10μCi, 1 wk)); 140.6 with NCI-H82 tumors (Buffer vs. conjugate (1 × 10μCi)); 429.7 with NCI-H82 tumors (Buffer vs. conjugate (4 × 10μCi, injections 2 weeks apart)). The “efficacy in inhibiting the growth of NCI-H82 tumors” value with NCI-H82 tumors (Pb-212 labelled conjugate, 1×10 μCi or 4×10 μCi (2 weeks apart), in words) is “good efficacy”; in the data set on NCI-H82 tumors (injected four times weekly at 10 μCi, in words) it was “strong and statistically significant efficacy”. Besides, the “potency versus benchmark antibody (Rova) conjugate” value in the data set on NCI-H82 tumors (both at 4×10 μCi, NCI-H82 tumors, in words) is listed as “more potent than the benchmark antibody (Rova) conjugate”. Also, the complete tumor regression result with NCI-H82 tumors (four times weekly at 10 μCi, NCI-H82, day 63 post-tumor cell xenograft) is given as “about 70 % of mice”. In addition, the appearance of animals result in data set [1] (Pb-212 labelled conjugate injected once at 10 μCi, 20 μCi and 30 μCi i.v., WT CD1 mice) was “animals appeared healthy and active”. The “body weight (BW) change” value in data set [1] (Pb-212 labelled conjugate injected once at 10 μCi, 20 μCi and 30 μCi, WT CD1 mice, recovered within up to about 10 days) is reported as “Minimal weight loss”. For the same molecule, the toxicity entry in data set [1] (Pb-212 labelled conjugate, injected dose of 60 μCi, WT CD1 mice) is “Toxicity was observed”. In addition, the “hematology profile (white blood cells, lymphocytes, monocytes, neutrophils)” value in data set [1] (within up to 28 days after injection of 10 μCi, 20 μCi and 30 μCi doses (data not shown)) was “complete recovery”.

B2: MAM279-DOTAM: GS-MAM279-tag (SEQ ID NO: 15) conjugated to the chelator DOTAM via C-terminal tag and maleimide connector, no radionuclide (conjugate)
chain: GSDLGKKLLEAARAGQDDEVRELLKAGADVNAKDYFSHTPLHLAARNGHLKIVEVLLKAGADVNAKDFAGKTPLHLAADAGHLEIVEVLLKAGADVNAQDIFGKTPADIAADAGHEDIAEVLQKAAGSPTPTPTTPTPTPTTPTPTPTGSDLGKKLLAAAAQGQDDEVRELLKAGANVNAKDLFGYTPLHLAAWRGHLEIVEVLLKAGADVNAKDAAGETPLHLAAWFGHLEIVEVLLKAGADVNAQDLQGKTPADLAAKEGHEDIAEVLQKAAGSGSC
modifications: DOTAM chelator via maleimide on C-terminal tag; Ankyrin repeat protein with tag (GS-MAM279-tag)
With B2, in data set [2], the “simultaneous binding to DLL3 and serum albumin” value was “can bind simultaneously to human DLL3 and human serum albumin”.

B3: MAM279: Two domain (2D) ankyrin repeat protein: serum albumin-specific domain (SEQ ID NO: 7), PT linker, DLL3-specific domain of MAM093 (protein)
chain: DLGKKLLEAARAGQDDEVRELLKAGADVNAKDYFSHTPLHLAARNGHLKIVEVLLKAGADVNAKDFAGKTPLHLAADAGHLEIVEVLLKAGADVNAQDIFGKTPADIAADAGHEDIAEVLQKAAGSPTPTPTTPTPTPTTPTPTPTGSDLGKKLLAAAAQGQDDEVRELLKAGANVNAKDLFGYTPLHLAAWRGHLEIVEVLLKAGADVNAKDAAGETPLHLAAWFGHLEIVEVLLKAGADVNAQDLQGKTPADLAAKEGHEDIAEVLQKAA
modifications: Ankyrin repeat protein (MAM279)
The Kd is a measure of binding affinity in units of concentration. For the molecule B3, at pig DLL3-ECD, binding was put at a Kd of 17.3 nM, the “Koff pig DLL3-ECD” value is 0.000319 s⁻¹ and the “Kon pig DLL3-ECD” value was 18400 M⁻¹ s⁻¹.
